# Test: soluble fraction after stress (log2 fold change); higher = more stays soluble; pooled small domains, quantitative proteomics
# Conditions: stress: 75 degC
# 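Also: 20 min heating vs room temperature control held 20 min.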
row,Sequence,soluble fraction (log2)
1,HMEQVKFFDAKVITTPPNRLKTRYTPAGNLRPEADWLQSGAIVPVYETSGAGWYRIGYQTWASAEWMQRLD,-2.8
2,HMEQVSDPALLERYAKEVVAASPKAVADYQAGNAKAFQALVGQMMKRTKGKGDPALIREILQKL,0.0645
3,HMEQVTMSNFLDKWGTSTKSPNAWYTSLSPMQKAEAKLLKEESGLTWNKWYEKNIYVGDGTN,0.985
4,HMERAYGVRVSLRLDDPFRTLLGADWSRTHWFASAEERDAALLEMSRKHEFSRPGDQPALVYEKVQN,-1.26
5,HMERDVNQLTPRERDILKLIAQGLPNKMIARRLDITESTVKVHVKHMLKKMKLKSRVEAAVWVHQERI,-1.55
6,HMEREQNILQGREVVERELRRLGLAEAYTVSDIAKALKFDDEEQFLAKVGFGDIQSRQISGAIALMEKN,-0.0753
7,HMERFLENAIPVLGETGLDIKSATEDFENALIRQALHLSGGNKNRAATLLGLKRTTFVEMLKRKSL,-1.12
8,HMERFMEFVITDTQQGQRLDVVLTETTEHLGSRSHMQRSIRAGLVSIDGITTTRASTKVSSGQIIRVEPT,-1.42
9,HMERGEFQKLGRATLEQTLARAGKTLAEVSLKAMLETFAFAAEEDLYEALGRGRVSAAKVGETLFPALKGR,-0.85
10,HMERKMKNNISDQTTYDTDKILNFNGKGYLNGLVIPNNYQIKEEGYYVFRQVALDGREQILYFTIQDLS,-1.98
11,HMERLSVSMGDMVVFVRDAVEAFRGLVKEKGITLTFESKVEHFYMNYDHDKVYKVVNNLLSNAVKFT,-0.145
12,HMERLTVVPELLKRSLSEAQPLVTSARLRLEVSGGAPEDTSRAIVVGQKPPPGTRVQVGTTVIVTVQIQRP,-0.534
13,HMERPYNGKQMEYHEGGVEKKETLFVEGGLSRVIQWDESGQKRSEVNISPTGVRREQYWDSSGKAIAKPS,0.14
14,HMERQAEAWTNRASALISLGRDEEALEAADRAIELDPRLSKAWIDRSTALSNLGRNDEANEAIQMAMFL,-0.12
15,HMERQILFTKEDLIEFGLSGGTDSRKRRDVLGHILGIGYSNSKQFLNRLNNFGVTREEFLSAIERIG,-0.816
16,HMERTVEVVDINDVFSQFLRLYSRERAAGLLSVFKRVEHGLSWQGNPVLLERILSNVFENAIKYAA,0.149
17,HMERVIYLLNGREVPAAEIRAAEPEALTVDRFYSSENLPAEYRDRNPELVVAFTAEEPLRHY,0.512
18,HMERVNILEKATKDIPNVEVKAFEGLSVNFARENHAQVIVRGLRAVTDFEYELQMAQTNRVLAPDVDTVF,-0.0564

row,Sequence,soluble fraction (log2)
1,HMERYSVQVGSFRNMRYAERLKQELQGEDFPAYIEKSGEFNRVRVGKGLTLEEATQLEQVLRKSGYQTVIV,-0.705
2,HMESIGANIRRLRKERNMSQDELARKAFTNRSNINRYESGKMVPSADTTEKIEEALGVPAGTLAQ,-0.214
3,HMESKDIRYVQLQTVSPEEVLQALALIMPRSDVYVEPTGKLVVLHGSKETLDRAEELILALDNAV,-0.116
4,HMESKITTAEAAAILNASPQFVRVAMQRGILNIGIAMQMPNSNKWTYNISPKLLGEYSGKNIEYELERLR,-1.65
5,HMESRTQVYDFYKDLFREKRRPLRAEEMLSALKSQRGIVGVNQYQIIEQHGIVRLSGSGRSALYWDTDLGS,-2.69
6,HMESSREVSFSEFMKQIDSGRVSSVKLDGETIYVRNSDGTSYKVIQPLGTDLIGVLRKSDIDVQAIKQ,0.107
7,HMESYNIVEQVLTKKILSKGNTLAKLSNEFDGLVMLVIRGDEFIIPNGETLLFEKDILVINNGP,-2.68
8,HMESYTGLAVTEDDDGWSNVRSGNSTSYSILFKIYAGEKFNILSNDGKWSYIDFNGRKGYIHNSIIRKY,-3.82
9,HMETAADLLAAAKENPARFGILASEGRFGLGYMNDDLLDPDNLVAISREEADDLRGLGVYFHNLD,0.293
10,HMETALYVEDLDRAVRFYESVMGLNTMSRGVRLVALDAGEGTVLLLFLRGATTSGASFEGGWIPPH,0.05
11,HMETDNEKVRTAFQNGLAAYREQDWDRAEAAFGAVLAEMPEDRPSLVYLERIAHLRKKAPPGAWDGVWI,-0.335
12,HMETENLSPREREILEYIVKGYSYKMIAADLNIATETVRSHIKKIYKKLQVNSATEAVYKYSN,-1.51
13,HMETEQVEMIRVVGMHVDEAKKALLDLGLSPEIKYEESSSYDAGTVLRASVQDGLMIDKGTNIVLTVAEA,0.293
14,HMETFEKIKELAKKRGKALGQVEEDLGYGRNTLYKIKNSTPNAERIAEIANYFNVSTDYLLGRTDNPTIAK,0.108
15,HMETFNMTQKEITRLRVINQAIDKVITIREAAELLGLSERQVIRLKGGVEKFGPAFIIHKNRGRKP,-1.57
16,HMETGLSNYEFKRIREQAEALLSDGQVRRINDLVDSIKNENAEKVIRVIRFLIDTEELILEDDRVSAKKS,-0.615
17,HMETIVGIDPDSKKKIVLKKGIKGRPDYLSFNKKNYSLPSELKEKNVSLEQALEIINDKKSNKKKIK,0.369

# Reference: the domain aggregation screens of Martell et al. (2025)
